Values of other authors as cited in PMC4549621.

Biological target: amyloid-beta monomer Abeta (Homo sapiens) (UniProt P05067)

For gantenerumab, the Kd is listed as 600 pM.
